Reference: PMC3601965, “Conformational Change-Induced Repeat Domain Expansion Regulates Rap Phosphatase Quorum-Sensing Signal Receptors” (PLoS Biology, 2013)

Tests used:
RapJ-R105A,Y161F = molecular target: T1, RapJ-R105A,Y161F (B. subtilis, UniProt O34327 1-373, R105A | Y161F); assay: SEC + other: MALDI-TOF and MALDI-TOF/TOF mass spectrometry; 8.5 mM PhrC mixed with 425 µM RapJ (wild type or R105A,Y161F), Superdex 200 16/70 in 20 mM Tris-HCl pH 8.0, 50 mM KCl, 5 mM MgCl2, 5 mM DTT; peak fractions analysed for PhrC (m/z 593.27); PhrC alone as control; details: both partners purified
T1 construct: RapJ, Bacillus subtilis, double mutant R105A,Y161F; same construct limits as wild-type RapJ; source: overexpressed and purified as for X-ray crystallography (E. coli; after the SourceQ step dialysed against buffer H); not shown: His, N-terminal, cleaved; SUMO, N-terminal, cleaved
T1 sequence (looked up): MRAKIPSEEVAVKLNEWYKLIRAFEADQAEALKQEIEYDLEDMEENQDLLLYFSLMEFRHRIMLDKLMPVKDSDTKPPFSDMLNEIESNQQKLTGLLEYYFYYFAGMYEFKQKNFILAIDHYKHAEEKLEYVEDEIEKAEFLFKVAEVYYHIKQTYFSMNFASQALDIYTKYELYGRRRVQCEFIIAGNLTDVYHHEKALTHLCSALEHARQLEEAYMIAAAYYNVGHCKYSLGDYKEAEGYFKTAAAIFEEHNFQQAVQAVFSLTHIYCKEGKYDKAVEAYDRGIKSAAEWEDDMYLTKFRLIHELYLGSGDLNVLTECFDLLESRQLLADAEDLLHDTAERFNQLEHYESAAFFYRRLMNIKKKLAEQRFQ

RapJ = molecular target: T2, RapJ (B. subtilis strain 168, UniProt O34327 1-373); assay: as above; details: both partners purified
T2 construct: RapJ, Bacillus subtilis strain 168, amplified from genomic DNA; no heterologous residues after removal of His-Sumo; Phases came from selenomethionyl RapJ crystals; In the functional rows the in vivo RapJ was expressed in B. subtilis VP068 from pDRJ1 (IS75 DNA); also called response regulator aspartate phosphatase J; wild-type RapJ; source: E. coli BL21(DE3), purified (His-60 Ni resin, SUMO …)
T2 sequence (looked up): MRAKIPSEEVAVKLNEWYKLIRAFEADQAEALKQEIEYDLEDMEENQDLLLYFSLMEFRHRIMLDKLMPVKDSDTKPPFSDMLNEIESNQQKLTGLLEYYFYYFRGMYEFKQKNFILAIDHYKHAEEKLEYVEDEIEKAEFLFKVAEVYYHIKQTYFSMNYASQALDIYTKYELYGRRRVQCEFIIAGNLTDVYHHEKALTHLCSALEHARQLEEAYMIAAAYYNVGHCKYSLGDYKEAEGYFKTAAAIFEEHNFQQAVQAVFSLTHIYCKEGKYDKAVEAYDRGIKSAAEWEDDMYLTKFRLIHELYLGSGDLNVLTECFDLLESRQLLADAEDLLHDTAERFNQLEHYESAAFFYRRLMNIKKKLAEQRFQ

B1: PhrC (peptide)
peptide: ERGMT
notes: mature PhrC pentapeptide (NH2-ERGMT-COOH), cut from the C-terminus of pro-PhrC, Bacillus subtilis; also called CSF; source: synthetic peptide, bought: LifeTein, 95% purity
binding result (RapJ-R105A,Y161F): binds
binding result (RapJ): binds
